Data from the supplement of paper PMC9170038.

System: MS2 coat protein
Test: apparent KD of MS2 coat protein; designed switch direction (-1 OFF switch, 1 ON switch): -1; higher = weaker reporter binding
Outline: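 Designed RNA switches sharing common flanks were transcribed on Illumina chips by stalled E. coli RNA polymerase. They were titrated with SNAP-549-labelled MS2 coat protein, from 0.7 or 1.5 nM doubling to 3 µM, in Tris-HCl pH 7.5 buffer with KCl, MgCl2, BSA, DTT, tRNA and Tween-20. Titrations ran without input, with 200 uM small-molecule ligand, or with an oligonucleotide input. The apparent KD of each design is the median over its clusters, after curve-fitting of normalised cluster fluorescence.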

[1] = Eterna round: R95, input ligand: FMN 200 uM
[2] = Eterna round: R95, input ligand: microRNA oligo, concentration not stated
[3] = Eterna round: R95, input ligand: none
[4] = input ligand: microRNA oligo, concentration not stated

Sequence	apparent KD of MS2 coat protein [1] [nM]	apparent KD of MS2 coat protein [2] [nM]	apparent KD of MS2 coat protein [3] [nM]	apparent KD of MS2 coat protein (input ligand: FMN 200 uM) [nM]	apparent KD of MS2 coat protein [4] [nM]	apparent KD of MS2 coat protein (input ligand: none) [nM]
CGUACUAACACGAAAGUGUUAGUACAAUAAGCUUGUGAAACAUGAGGAUCACCCAUGUCCUCAUAAGCUCGUCUUAG [salish99_TOv2_r3_008] (puzzle: Sensor v3, turn-off variant 2)	17.1	388	14.5			
CGUACUAACACGAAAGUGUUAGUACAAUAAGCUUGUGAAACAUGAGGAUCACCCAUGUCCUCAUAAGCUCGUCUUAU [salish99_TOv2_r3_007] (Eterna round: R96, puzzle: Sensor v3, turn-off variant 2)				15.6	486	17.9
CGUACUAACACGAAAGUGUUAGUACAAUAAGCUUGUGAAACAUGAGGAUCACCCAUGUCCUCAUAAGCUCGUCUUAU [salish99_TOv2_r3_007] (puzzle: Sensor v3, turn-off variant 2)	17.1	967	15.7			
CGUCAGUGAGGAUAUGGUUUCGUGUACAUGAGGAUCACCCAUGUUUCUUGGGACUAAUUACUAGAAGGCACUGACG [JR_Ex5_Sub033] (Eterna round: R97, puzzle: Exclusion 5)				21.2		14
CGUCCACUUGAGGAUCACCCAAGUUAGGAUAUCUCCCGGCUCGCAAAUGCAGUCGGUCAGAGAAGGAACCAGGG [Qualaon] (Eterna round: R97, puzzle: Exclusion 1)				59.6		26.7
CGUGACUCAGGAUAUCUAUUAUAUCACAUGAGGAUCACCCAUGUCCAGCGAAAGCUGGAGGGAGAAGGGAGUCACG [Fiskers Ex 5 - 44] (puzzle: Exclusion 5)	52.3	136	108			
CGUGACUCAGGAUAUGGAUUAUAUCACAUGAGGAUCACCCAUGUCCAGCGAAAGCUGGAGUCAGAAGGGAGUCACG [Fiskers Ex 5 - 48] (puzzle: Exclusion 5)	34.9	70.9	85.4			
CGUGCGUAUGUGAGGAUAUGCUGGUCCUUGGAUCGGCAGAAGGCACAUGAGGAUCACCCAUGUGGUGUCGUUCU [salish99_Bmod_ex4_092] (puzzle: Brourd's mod of Exclusion 4)		129				
CGUGCGUAUGUGAGGAUAUGCUGGUCCUUGGCUCGGCAGAAGGCACAUGAGGAUCACCCAUGUGGUGUCGUACC [salish99_Bmod_ex4_061] (puzzle: Brourd's mod of Exclusion 4)		18.9				
CGUGUACGAGGAUAUAGAUUAGAUGACAUGAGGAUCACCCAUGUGAUCAAUCUAUUUAGUUUAGAAGGUGUACAUG [JR_Ex5_Sub051] (Eterna round: R97, puzzle: Exclusion 5)				16.1		12.5
CGUGUGCAGUAGGAUAUCCAAAUCCUGUGGAUAGGAGAAGGACUGACAUGAGGAUCACCCAUGUGGGUAAAGAC [Velaxediza] (puzzle: Exclusion 6)	48.8	63.7	57.7			
CUAAAUCAUGUAGGAUAUGCGUGGCAAAGCUAUGCAGAAGGACAUGAGGAUCACCCAUGUCAUUCCGUCUGGAAACAGACGGGA [Mat - Exclusion NG 1 - Mod of JL - D53] (Eterna round: R96, puzzle: Exclusion NG 1)				283	18.1	22.8
CUAAAUCAUGUAGGAUAUGCGUGGCGAAGCUAUGCAGAAGGACAUGAGGAUCACCCAUGUCUUUCCGUCUGAGUACAGACGGGA [Mat - Exclusion NG 1 - Mod of JL - D45] (Eterna round: R96, puzzle: Exclusion NG 1)				155	16.4	18
CUAAUACAUGUGAGGAUAUACGACUUGGAGACGGCGUAGAAGGUACAUGAGGAUCACCCAUGUGCGGGCUCCUU [Eternabot (L1) Solution 49] (Eterna round: R97, puzzle: Brourd's mod of Exclusion 4)				55.9		27.5
